Measurements published in patent US20240132624A1 (Ablynx, published 2024).
Like-named read-outs stand apart in the source and are kept apart here.

Tests used:
human FcRn/b2M [1] = biological target: T1, human FcRn/b2M (human, UniProt P61769 21-119, biotinylated); experiment: SPR pH 6.0
T1 construct: bought recombinant biotinylated protein (ACRO FCM-H82W4 or Immunitrack ITF01); also called hFcRn; hFcRn/hb2M
Method: (§1) The affinity of the purified, multivalent ISVD constructs for human and cyno FcRn was determined on the MASS-2 (Sierra sensors, Gmbh) instrument, hFcRn/hb2M and cFcRn/cb2M was captured on a Biotin-tag Capture Chip or a High Capacity Amine Chip (pre-immobilized with neutravidin). The ISVD constructs were injected at 6 different concentrations (between 1 and 4000 nM) and allowed to associate for 120 s at 45 μL/min and dissociate for 600 s-3600 s at 45 μL/min. […] Evaluation of the sensorgrams was based on the 1:1 Langmuir dissociation model simultaneously fitting on and off-rates.

cyno FcRn/b2M [2] = biological target: T2, cyno FcRn/b2M (cyno, UniProt Q8SPV9 24-297; Q8SPW0 21-119, biotinylated); experiment: SPR pH 6.0
T2 construct: bought recombinant biotinylated protein (Immunitrack ITF05 or ACRO FCM-C82W5); also called cFcRn; cFcRn/cb2M
Method: as §1

cyno FcRn/b2M [3] = biological target: T2, cyno FcRn/b2M; experiment: SPR pH 7.4
Method: as §1

human serum albumin [4] = biological target: T3, human serum albumin (human, UniProt P02768 25-609); experiment: SPR pH 6.0
T3 construct: also called HSA
Method: (§2) The affinity of the purified, multivalent ISVD constructs for human and mouse serum albumin (HSA and MSA, respectively) was determined on the ProteOn XPR36 (BioRad Laboratories, Inc.) instrument. […] The ISVD constructs were injected at 6 different concentrations (between 1 and 500 nM) and allowed to associate for 120 s at 45 μL/min and dissociate for 600s-3600s at 45 μL/min. Evaluation of the sensorgrams was based on the 1:1 Langmuir dissociation model simultaneously fitting on and off-rates.

mouse serum albumin [5] = biological target: T4, mouse serum albumin (mouse, UniProt P07724 25-608); experiment: SPR pH 6.0
T4 construct: also called MSA
Method: as §2

human serum albumin [6] = biological target: T3, human serum albumin; experiment: SPR pH 7.4
Method: as §2

mouse serum albumin [7] = biological target: T4, mouse serum albumin; experiment: SPR pH 7.4
Method: as §2

human FcRn/b2M [8] = biological target: T1, human FcRn/b2M; experiment: SPR pH 6.0; remark: listed apart in the source
human FcRn/b2M [9] = biological target: T1, human FcRn/b2M; experiment: SPR pH 6.0; remark: listed apart in the source
cyno FcRn/b2M [10] = biological target: T2, cyno FcRn/b2M; experiment: SPR pH 6.0; remark: listed apart in the source
human FcRn/b2M [11] = biological target: T1, human FcRn/b2M; experiment: SPR off-rate pH 6.0

T2 sequence (Q8SPV9 24-297 limits assumed, chain 1 of 2): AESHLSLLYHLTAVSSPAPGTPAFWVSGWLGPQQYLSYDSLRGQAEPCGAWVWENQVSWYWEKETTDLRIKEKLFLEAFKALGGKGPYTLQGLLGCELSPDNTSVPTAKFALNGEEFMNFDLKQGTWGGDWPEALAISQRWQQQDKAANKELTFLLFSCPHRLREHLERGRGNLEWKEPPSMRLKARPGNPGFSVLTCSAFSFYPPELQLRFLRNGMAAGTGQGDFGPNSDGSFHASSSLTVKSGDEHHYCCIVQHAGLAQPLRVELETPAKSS
T2 sequence (Q8SPW0 21-119 limits assumed, chain 2 of 2): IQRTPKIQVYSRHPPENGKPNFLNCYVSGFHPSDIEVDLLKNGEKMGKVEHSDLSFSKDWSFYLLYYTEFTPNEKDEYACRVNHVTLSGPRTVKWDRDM
T4 sequence (P07724 25-608 limits assumed): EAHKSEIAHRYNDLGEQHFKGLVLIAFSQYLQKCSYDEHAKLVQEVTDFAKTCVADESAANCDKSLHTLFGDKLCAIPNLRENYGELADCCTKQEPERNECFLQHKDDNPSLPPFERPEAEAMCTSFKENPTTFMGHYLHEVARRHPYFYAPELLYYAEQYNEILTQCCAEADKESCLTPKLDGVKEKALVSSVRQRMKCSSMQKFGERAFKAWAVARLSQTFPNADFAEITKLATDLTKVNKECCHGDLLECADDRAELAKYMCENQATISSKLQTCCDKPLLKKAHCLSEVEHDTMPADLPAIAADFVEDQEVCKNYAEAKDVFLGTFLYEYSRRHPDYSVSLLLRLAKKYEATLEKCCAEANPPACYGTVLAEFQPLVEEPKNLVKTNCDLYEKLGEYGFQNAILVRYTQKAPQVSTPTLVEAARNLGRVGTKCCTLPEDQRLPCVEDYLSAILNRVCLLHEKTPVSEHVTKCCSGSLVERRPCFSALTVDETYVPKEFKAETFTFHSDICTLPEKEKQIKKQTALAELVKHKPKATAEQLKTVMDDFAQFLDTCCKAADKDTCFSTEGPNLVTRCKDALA

Row | Binder | koff (human FcRn/b2M [8]) | Kd (human FcRn/b2M [9]) | Kd (cyno FcRn/b2M [10]) | further results
1 | T026301192 (bispecific antibody, name in Kabat numbering, bispecific ISVD construct; also called T0263018B11(E1D, S100E)-35GS-ALB23002-A) DVQLVESGGGVVQPGGSLRLSCAASGFTFSSYAMYWVRQAPGKGLEWVSAISSGGGSTDYADSVKGRFTISRDNSKNTLYLQMNSLRPEDTALYYCAADTLYTELTWYSYWGQGTLVTVSSGGGGSGGGGSGGGGSGGGGSGGGGSGGGGSGGGGSEVQLVESGGGVVQPGGSLRLSCAASGFTFRSFGMSWVRQAPGKGPEWVSSISGSGSDTLYADSVKGRFTISRDNSKNTLYLQMNSLRPEDTALYYCTIGGSLSRSSQGTLVTVSSA | – | – | – | Kd (human FcRn/b2M [1]): 250 nM; Kd (cyno FcRn/b2M [2]): 140 nM; Kd (cyno FcRn/b2M [3]): 480 nM; Kd (human serum albumin [4]): 5.7 nM; Kd (mouse serum albumin [5]): 64 nM; Kd (human serum albumin [6]): 12 nM; Kd (mouse serum albumin [7]): 87 nM
2 | T026301196 (bispecific antibody, name in Kabat numbering, bispecific ISVD construct; also called T0263018B11(E1D, G26T, S52aQ, W100cS)-35GS-ALB23002-A) DVQLVESGGGVVQPGGSLRLSCAASTFTFSSYAMYWVRQAPGKGLEWVSAISQGGGSTDYADSVKGRFTISRDNSKNTLYLQMNSLRPEDTALYYCAADTLYTSLTSYSYWGQGTLVTVSSGGGGSGGGGSGGGGSGGGGSGGGGSGGGGSGGGGSEVQLVESGGGVVQPGGSLRLSCAASGFTFRSFGMSWVRQAPGKGPEWVSSISGSGSDTLYADSVKGRFTISRDNSKNTLYLQMNSLRPEDTALYYCTIGGSLSRSSQGTLVTVSSA | – | – | – | Kd (human FcRn/b2M [1]): 1000 nM; Kd (cyno FcRn/b2M [2]): 510 nM; Kd (human serum albumin [4]): 7.4 nM; Kd (mouse serum albumin [5]): 89 nM; Kd (human serum albumin [6]): 15 nM; Kd (mouse serum albumin [7]): 120 nM
3 | T026301057 (VHH, name in Kabat numbering, tagless) VHH: EVQLVESGGGVVQPGGSLRLSCAASGFTFSEYAMYWVRQAPGKGLEWVSAISQGGGSTDYADSVKGRFTISRDNSKNTLYLQMNSLRPEDTALYYCAADTLYTSLTSYSYWGQGTLVTVSS | 0.016 s⁻¹ | 390 nM | 260 nM | –
4 | T026301076 (VHH, name in Kabat numbering, tagless) VHH: EVQLVESGGGVVQPGGSLRLSCAASGFTFSSYDMYWVRQAPGKGLEWVSAISQGGGSTDYADSVKGRFTISRDNSKNTLYLQMNSLRPEDTALYYCAADTLYTSLTKYSYWGQGTLVTVSS | 0.003 s⁻¹ | 120 nM | 37 nM | –
5 | T026301131 (VHH, name in Kabat numbering, tagless) VHH: EVQLVESGGGVVQPGGSLRLSCAASTFTFSSYDMYWVRQAPGKGLEWVSAISSGGGSTDYADSVKGRFTISRDNSKNTLYLQMNSLRPEDTALYYCAADTLYTDLTSYSYWGQGTLVTVSS | – | – | – | binding result (human FcRn/b2M [11]): no binding
6 | T026301120 (VHH, name in Kabat numbering, tagless) VHH: EVQLVESGGGVVQPGGSLRLSCAASTFTFSEYDMYWVRQAPGKGLEWVSAISQGGGSTDYADSVKGRFTISRDNSKNTLYLQMNSLRPEDTALYYCAADTLYTDLTSYSYWGQGTLVTVSS | – | – | – | binding result (human FcRn/b2M [11]): no binding
7 | T026301070 (VHH, name in Kabat numbering, tagless) VHH: EVQLVESGGGVVQPGGSLRLSCAASGFTFSEYDMYWVRQAPGKGLEWVSAISQGGGSTDYADSVKGRFTISRDNSKNTLYLQMNSLRPEDTALYYCAADTLYTSLTSYSYWGQGTLVTVSS | 0.0046 s⁻¹ | 150 nM | 140 nM | –
8 | T026301091 (VHH, name in Kabat numbering, tagless) VHH: EVQLVESGGGVVQPGGSLRLSCAASGFTFSEYDMYWVRQAPGKGLEWVSAISSGGGSTDYADSVKGRFTISRDNSKNTLYLQMNSLRPEDTALYYCAADTLYTSLTSYSYWGQGTLVTVSS | 0.0062 s⁻¹ | 250 nM | 160 nM | –
9 | T026301130 (VHH, name in Kabat numbering, tagless) VHH: EVQLVESGGGVVQPGGSLRLSCAASTFTFSEYDMYWVRQAPGKGLEWVSAISSGGGSTDYADSVKGRFTISRDNSKNTLYLQMNSLRPEDTALYYCAADTLYTDLTSYSYWGQGTLVTVSS | – | – | – | binding result (human FcRn/b2M [11]): no binding
10 | T026301118 (VHH, name in Kabat numbering, tagless) VHH: EVQLVESGGGVVQPGGSLRLSCAASGFTFSSYDMYWVRQAPGKGLEWVSAISSGGGSTDYADSVKGRFTISRDNSKNTLYLQMNSLRPEDTALYYCAADTLYTDLTSYSYWGQGTLVTVSS | – | – | – | binding result (human FcRn/b2M [11]): no binding
11 | T026301098 (VHH, name in Kabat numbering, tagless; also called T0263018B11 S31D) VHH: EVQLVESGGGVVQPGGSLRLSCAASGFTFSDYAMYWVRQAPGKGLEWVSAISSGGGSTDYADSVKGRFTISRDNSKNTLYLQMNSLRPEDTALYYCAADTLYTSLTWYSYWGQGTLVTVSS | 0.013 s⁻¹ | 200 nM | 140 nM | –
12 | T026301129 (VHH, name in Kabat numbering, tagless) VHH: EVQLVESGGGVVQPGGSLRLSCAASGFTFSEYDMYWVRQAPGKGLEWVSAISQGGGSTDYADSVKGRFTISRDNSKNTLYLQMNSLRPEDTALYYCAADTLYTDLTKYSYWGQGTLVTVSS | – | – | – | binding result (human FcRn/b2M [11]): no binding

Second part, led by results:

Row | koff (human FcRn/b2M [8]) | Kd (human FcRn/b2M [9]) | Kd (cyno FcRn/b2M [10]) | Binder | further results
13 | 0.0067 s⁻¹ | 170 nM | 110 nM | T026301117 (VHH, name in Kabat numbering, tagless) VHH: EVQLVESGGGVVQPGGSLRLSCAASGFTFSEYAMYWVRQAPGKGLEWVSAISSGGGSTDYADSVKGRFTISRDNSKNTLYLQMNSLRPEDTALYYCAADTLYTSLTSYSYWGQGTLVTVSS | –
14 | 0.005 s⁻¹ | 62 nM | 41 nM | T026301063 (VHH, name in Kabat numbering, tagless) VHH: EVQLVESGGGVVQPGGSLRLSCAASTFTFSSYAMYWVRQAPGKGLEWVSAISQGGGSTDYADSVKGRFTISRDNSKNTLYLQMNSLRPEDTALYYCAADTLYTSLTWYSYWGQGTLVTVSS | –
15 | – | – | 23 nM | T026301069 (VHH, name in Kabat numbering, tagless) VHH: EVQLVESGGGVVQPGGSLRLSCAASGFTFSSYDMYWVRQAPGKGLEWVSAISQGGGSTDYADSVKGRFTISRDNSKNTLYLQMNSLRPEDTALYYCAADTLYTSLTSYSYWGQGTLVTVSS | –
16 | 0.0039 s⁻¹ | 140 nM | 98 nM | T026301100 (VHH, name in Kabat numbering, tagless) VHH: EVQLVESGGGVVQPGGSLRLSCAASGFTFSSYDMYWVRQAPGKGLEWVSAISQGGGSTDYADSVKGRFTISRDNSKNTLYLQMNSLRPEDTALYYCAADTLYTDLTWYSYWGQGTLVTVSS | –
17 | 0.0051 s⁻¹ | 150 nM | 130 nM | T026301080 (VHH, name in Kabat numbering, tagless) VHH: EVQLVESGGGVVQPGGSLRLSCAASGFTFSSYDMYWVRQAPGKGLEWVSAISSGGGSTDYADSVKGRFTISRDNSKNTLYLQMNSLRPEDTALYYCAADTLYTSLTSYSYWGQGTLVTVSS | –
18 | – | 30 nM | – | T026301099 (VHH, name in Kabat numbering, tagless) VHH: EVQLVESGGGVVQPGGSLRLSCAASGFTFSEYDMYWVRQAPGKGLEWVSAISSGGGSTDYADSVKGRFTISRDNSKNTLYLQMNSLRPEDTALYYCAADTLYTSLTWYSYWGQGTLVTVSS | –
19 | 0.0011 s⁻¹ | 25 nM | 20 nM | T026301087 (VHH, name in Kabat numbering, tagless) VHH: EVQLVESGGGVVQPGGSLRLSCAASGFTFSEYDMYWVRQAPGKGLEWVSAISQGGGSTDYADSVKGRFTISRDNSKNTLYLQMNSLRPEDTALYYCAADTLYTSLTWYSYWGQGTLVTVSS | –
